In US20110318377:

Assays:
[1] = tested on: histones purified from calf thymus
[2] = tested on: full-length synthetic Tat protein (72 amino acids), unmodified

recombinant G9a (Upstate)
in vitro methylation with radiolabeled SAM, autoradiography [1]: led to the successful methylation of histones as expected | in vitro methylation with radiolabeled SAM, autoradiography [2]: Incubation with the lysine methyltransferase G9a did not result in methylation of Tat
